Measurements from patent US9073974B2, “RGD-containing cyclic peptides” (The Regents of the University of California, priority 2009, dated 2015).
Numbered stars: 1 amine (or outer) side, 2 acyl side, 3 side chain; on linkers, the order of the positions; unused ones are H or OH. Bridge positions count the residues as written; N and C are the ends. Square brackets hold non-standard residues; d marks the D form. Ends that are not written are not given here. Peptide text beside a SMILES is read from it. * marks the point of attachment. N(CH2CH2CO)Gly = O=C(CN(CCC(=O)[*:3])[*:1])[*:2]; Pro(5R-Ph) = O=C(O)[C@@H]1CC[C@H](c2ccccc2)N1; dAla(4-thiazolyl) = N[C@H](Cc1cscn1)C(=O)O; d(αMeV) = CC(C)[C@@](C)(N)C(=O)O; dCit = NC(=O)NCCC[C@@H](N)C(=O)O; Isobutyryl = CC(C)C(=O)*

B1: LXW2 (peptide)
peptide: [dC]GRGD[dD][dF][dC]-NH2
modifications: disulfide 1-8; N-terminus assumed
SMILES: N=C(N)NCCC[C@@H]1NC(=O)CNC(=O)[C@H](N)CSSC[C@H](C(N)=O)NC(=O)[C@@H](Cc2ccccc2)NC(=O)[C@@H](CC(=O)O)NC(=O)[C@H](CC(=O)O)NC(=O)CNC1=O
B2: LXW1 (peptide)
peptide: [dC]GRGD[dS][dF][dC]-NH2
modifications: disulfide 1-8; N-terminus assumed
SMILES: N=C(N)NCCC[C@@H]1NC(=O)CNC(=O)[C@H](N)CSSC[C@H](C(N)=O)NC(=O)[C@@H](Cc2ccccc2)NC(=O)[C@@H](CO)NC(=O)[C@H](CC(=O)O)NC(=O)CNC1=O
B3: LXW5 (peptide)
peptide: [dC]GRGD[dD][dS][dC]-NH2
modifications: disulfide 1-8; N-terminus assumed
SMILES: N=C(N)NCCC[C@@H]1NC(=O)CNC(=O)[C@H](N)CSSC[C@H](C(N)=O)NC(=O)[C@@H](CO)NC(=O)[C@@H](CC(=O)O)NC(=O)[C@H](CC(=O)O)NC(=O)CNC1=O
B4: LXW68 (peptide)
peptide: [dC]GRGD[dD][dW][dC]-NH2
modifications: disulfide 1-8; N-terminus assumed
SMILES: N=C(N)NCCC[C@@H]1NC(=O)CNC(=O)[C@H](N)CSSC[C@H](C(N)=O)NC(=O)[C@@H](Cc2c[nH]c3ccccc23)NC(=O)[C@@H](CC(=O)O)NC(=O)[C@H](CC(=O)O)NC(=O)CNC1=O
B5: LXW76 (peptide)
peptide: Isobutyryl-[dC]GRGD[dD][dV][dC]-NH2
modifications: disulfide 1-8
SMILES: CC(C)C(=O)N[C@@H]1CSSC[C@H](C(N)=O)NC(=O)[C@@H](C(C)C)NC(=O)[C@@H](CC(=O)O)NC(=O)[C@H](CC(=O)O)NC(=O)CNC(=O)[C@H](CCCNC(=N)N)NC(=O)CNC1=O
B6: LXW39 (peptide)
peptide: CGRGD[dD][dAla(4-thiazolyl)]C-NH2
modifications: disulfide 1-8; N-terminus assumed
SMILES: N=C(N)NCCC[C@@H]1NC(=O)CNC(=O)[C@@H](N)CSSC[C@@H](C(N)=O)NC(=O)[C@@H](Cc2cscn2)NC(=O)[C@@H](CC(=O)O)NC(=O)[C@H](CC(=O)O)NC(=O)CNC1=O
notes: also called CGRGDd-DTha-C
B7: LXW23 (peptide)
peptide: [dC]GRGD[dD][d(αMeV)][dC]-NH2
modifications: disulfide 1-8; N-terminus assumed
SMILES: CC(C)[C@@]1(C)NC(=O)[C@@H](CC(=O)O)NC(=O)[C@H](CC(=O)O)NC(=O)CNC(=O)[C@H](CCCNC(=N)N)NC(=O)CNC(=O)[C@H](N)CSSC[C@H](C(N)=O)NC1=O
B8: LXW70 (peptide)
peptide: [dC]GRGD[dCit][Pro(5R-Ph)][dC]-NH2
modifications: disulfide 1-8; N-terminus assumed
SMILES: N=C(N)NCCC[C@@H]1NC(=O)CNC(=O)[C@H](N)CSSC[C@H](C(N)=O)NC(=O)[C@@H]2CC[C@H](c3ccccc3)N2C(=O)[C@@H](CCCNC(N)=O)NC(=O)[C@H](CC(=O)O)NC(=O)CNC1=O
B9: LXW72 (peptide)
peptide: [dC]GRGD[N(CH2CH2CO)Gly][Pro(5R-Ph)][dC]-NH2
modifications: disulfide 1-8; N-terminus assumed
SMILES: N=C(N)NCCC[C@@H]1NC(=O)CNC(=O)[C@H](N)CSSC[C@H](C(N)=O)NC(=O)[C@@H]2CC[C@H](c3ccccc3)N2C(=O)CN(CCC(=O)O)C(=O)[C@H](CC(=O)O)NC(=O)CNC1=O
notes: also called cGRGD-NGlu-Ppca-c

Biological target: αvβ3 integrin (Homo sapiens, UniProt P05106+P06756)
Sequence (P06756 31-889 limits assumed): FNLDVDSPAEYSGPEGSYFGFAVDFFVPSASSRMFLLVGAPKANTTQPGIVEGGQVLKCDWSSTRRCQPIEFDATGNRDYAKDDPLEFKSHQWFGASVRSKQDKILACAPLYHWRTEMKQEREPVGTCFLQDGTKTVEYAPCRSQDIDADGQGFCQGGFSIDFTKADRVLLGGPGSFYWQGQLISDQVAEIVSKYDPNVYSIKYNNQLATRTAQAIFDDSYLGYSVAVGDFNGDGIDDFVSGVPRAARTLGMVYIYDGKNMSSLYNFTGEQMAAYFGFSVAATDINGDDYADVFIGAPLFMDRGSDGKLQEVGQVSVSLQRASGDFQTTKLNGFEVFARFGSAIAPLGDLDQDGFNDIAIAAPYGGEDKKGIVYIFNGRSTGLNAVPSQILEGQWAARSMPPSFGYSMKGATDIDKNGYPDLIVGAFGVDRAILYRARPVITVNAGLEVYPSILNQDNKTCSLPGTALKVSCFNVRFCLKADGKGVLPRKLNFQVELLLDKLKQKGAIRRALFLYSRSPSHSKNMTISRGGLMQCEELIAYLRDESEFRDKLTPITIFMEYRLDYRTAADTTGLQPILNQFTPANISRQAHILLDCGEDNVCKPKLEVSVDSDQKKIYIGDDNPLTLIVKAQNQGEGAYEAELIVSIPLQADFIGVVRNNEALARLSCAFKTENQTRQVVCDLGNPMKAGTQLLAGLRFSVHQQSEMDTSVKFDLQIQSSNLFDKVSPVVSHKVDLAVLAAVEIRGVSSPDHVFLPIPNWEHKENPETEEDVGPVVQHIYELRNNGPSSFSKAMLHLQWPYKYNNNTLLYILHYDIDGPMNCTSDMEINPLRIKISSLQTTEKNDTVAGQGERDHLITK
Sequence (P06756 891-1048 partner limits assumed): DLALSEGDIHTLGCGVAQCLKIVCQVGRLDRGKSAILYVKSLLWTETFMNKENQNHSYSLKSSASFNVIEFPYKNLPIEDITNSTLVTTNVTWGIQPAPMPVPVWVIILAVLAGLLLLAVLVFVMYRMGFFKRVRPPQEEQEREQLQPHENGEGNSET
Sequence (P05106 27-788): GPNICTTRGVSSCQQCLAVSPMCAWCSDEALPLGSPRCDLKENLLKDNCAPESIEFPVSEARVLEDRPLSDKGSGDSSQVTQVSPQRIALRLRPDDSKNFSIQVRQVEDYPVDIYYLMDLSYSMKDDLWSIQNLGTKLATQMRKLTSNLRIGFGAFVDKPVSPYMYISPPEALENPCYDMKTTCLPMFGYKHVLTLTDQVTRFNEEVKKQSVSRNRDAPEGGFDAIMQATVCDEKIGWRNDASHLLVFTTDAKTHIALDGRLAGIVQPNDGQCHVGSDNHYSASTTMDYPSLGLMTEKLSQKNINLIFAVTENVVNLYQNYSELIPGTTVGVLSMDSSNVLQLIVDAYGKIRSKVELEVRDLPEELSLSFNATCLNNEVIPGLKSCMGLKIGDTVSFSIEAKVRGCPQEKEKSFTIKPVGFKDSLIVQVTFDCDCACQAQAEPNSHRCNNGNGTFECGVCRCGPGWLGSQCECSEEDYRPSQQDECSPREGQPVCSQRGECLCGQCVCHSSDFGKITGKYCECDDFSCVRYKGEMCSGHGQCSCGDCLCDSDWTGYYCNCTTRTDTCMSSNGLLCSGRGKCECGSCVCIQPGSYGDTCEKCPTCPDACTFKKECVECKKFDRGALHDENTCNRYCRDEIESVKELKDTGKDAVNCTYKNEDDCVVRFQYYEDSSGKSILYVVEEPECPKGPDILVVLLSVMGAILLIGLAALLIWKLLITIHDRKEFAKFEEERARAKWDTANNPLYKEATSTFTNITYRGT
Experiment: Inhibition of FITC-Echistatin binding to αvβ3-K562 cells (flow cytometry)
Design: expressed in transfected cells; host or cells: K562 (gift of Dr. Yoshikazu Takada, UC Davis)
Details: LXW1-8: inhibition of binding of FITC-Echistatin against αvβ3-K562; class symbols; read-out: IC50
Procedure: The samples were analyzed with Coulter XL-MCL flow cytometry. The histogram and mean fluorescence intensity (MFI) were determined. The apparent Kd, IC50 were calculated using Graph Prism software (≦www.graphpad.com≧).

Molecule	IC50 [µM]
N=C(N)NCCC[C@@H]1NC(=O)CNC(=O)[C@H](N)CSSC[C@H](C(N)=O)NC(=O)[C@@H](Cc2ccccc2)NC(=O)[C@@H](CO)NC(=O)[C@H](CC(=O)O)NC(=O)CNC1=O [LXW1, cGRGDsfc] (H-[dC]GRGD[dS][dF][dC]-NH2; disulfide 1-8)	1 to 10
N=C(N)NCCC[C@@H]1NC(=O)CNC(=O)[C@H](N)CSSC[C@H](C(N)=O)NC(=O)[C@@H](CCC(=O)O)NC(=O)[C@@H](CO)NC(=O)[C@H](CC(=O)O)NC(=O)CNC1=O [LXW3, cGRGDsec] (H-[dC]GRGD[dS][dE][dC]-NH2; disulfide 1-8)	< 1
N=C(N)NCCC[C@@H]1NC(=O)CNC(=O)[C@H](N)CSSC[C@H](C(N)=O)NC(=O)[C@@H](Cc2ccccc2)NC(=O)[C@@H](CC(=O)O)NC(=O)[C@H](CC(=O)O)NC(=O)CNC1=O [LXW2, cGRGDdfc] (H-[dC]GRGD[dD][dF][dC]-NH2; disulfide 1-8)	1 to 10
N=C(N)NCCC[C@@H]1NC(=O)CNC(=O)[C@H](N)CSSC[C@H](C(N)=O)NC(=O)[C@@H](CO)NC(=O)[C@@H](CC(=O)O)NC(=O)[C@H](CC(=O)O)NC(=O)CNC1=O [LXW5, cGRGDdsc] (H-[dC]GRGD[dD][dS][dC]-NH2; disulfide 1-8)	1 to 10

Same assay, conditions: LXW1-8 series

Molecule	binding affinity compared with LXW7 or the Arg parent, in words
CC(C)[C@H]1NC(=O)[C@@H](CC(=O)O)NC(=O)[C@H](CC(=O)O)NC(=O)CNC(=O)[C@H](CCCCN)NC(=O)CNC(=O)[C@H](N)CSSC[C@H](C(N)=O)NC1=O [LXW8, cGKGDdvc] (H-[dC]GKGD[dD][dV][dC]-NH2; disulfide 1-8)	decreased the affinity
NCCCC[C@@H]1NC(=O)CNC(=O)[C@H](N)CSSC[C@H](C(N)=O)NC(=O)[C@@H](CO)NC(=O)[C@@H](CC(=O)O)NC(=O)[C@H](CC(=O)O)NC(=O)CNC1=O [LXW6, cGKGDdsc] (H-[dC]GKGD[dD][dS][dC]-NH2; disulfide 1-8)	decreased the affinity
NCCCC[C@@H]1NC(=O)CNC(=O)[C@H](N)CSSC[C@H](C(N)=O)NC(=O)[C@@H](CCC(=O)O)NC(=O)[C@@H](CO)NC(=O)[C@H](CC(=O)O)NC(=O)CNC1=O [LXW4, cGKGDsec] (H-[dC]GKGD[dS][dE][dC]-NH2; disulfide 1-8)	decreased the affinity

Same assay, conditions: biotinylated peptides; read-out: IC50 (μM) Inhibit FITC-Echistatin binding with αvβ3-K562

Molecule	IC50 [µM]
N=C(N)NCCC[C@@H]1NC(=O)[C@H](CCCCNC(=O)CCC(=O)NCCOCCOCCNC(=O)CCC(=O)N[C@@H](CCCCNC(=O)CCCC[C@@H]2SC[C@@H]3NC(=O)N[C@@H]32)C(N)=O)NC(=O)[C@@H](Cc2ccccc2)NC(=O)[C@H](CC(=O)O)NC(=O)CNC1=O [cyclo (RGDfK)-Bio, Biotinylated Cyclo(RGDfK), reference compound]	1.37 ± 0.2

Tested on: U-87 MG xenograft
Experiment: In vivo and ex vivo near infra red fluorescent imaging, U-87 MG xenograft
Design: species or system nude mice
Details: complex of Streptavidin-Cy5.5 with biotinylated peptide, 6 hrs after tail vein injection
Procedure: Animal studies were performed according to a protocol approved by IACUC of the University of California, Davis.
Animals were placed on a sheet of transparency in different position. […] Images were captured with a CCD camera set at F stop=0, FOV=150, and FP=0. Six hours post injection of imaging complex, the mice were conducted in vivo imaging, then were sacrificed and organs were excised for ex vivo imaging.

Molecule	liver uptake, ex vivo imaging	tumor uptake, ex vivo imaging
N=C(N)NCCC[C@@H]1NC(=O)[C@H](CCCCN)NC(=O)[C@@H](Cc2ccccc2)NC(=O)[C@H](CC(=O)O)NC(=O)CNC1=O [cyclo (RGDfK), cyclo(RGDfK)]	reverse	reverse
N=C(N)NCCC[C@@H]1NC(=O)[C@H](CCCCN)NC(=O)[C@@H](Cc2ccc(O)cc2)NC(=O)[C@H](CC(=O)O)NC(=O)CNC1=O [cyclo (RGDyK), cyclo(RGDyK)]	reverse	reverse
N=C(N)NCCC[C@@H]1NC(=O)[C@H](CCC(=O)O)NC(=O)[C@@H](Cc2ccccc2)NC(=O)[C@H](CC(=O)O)NC(=O)CNC1=O [cyclo(RGDfE)]	reverse	reverse

Biological target: T1, αvβ3 integrin (human, UniProt P06756 31-1048; P05106 27-788)
T1 construct: whole, on cells; Same entry used for αvβ3-K562, U-87 MG and A375M cells; also called αvβ3-K562; αvβ3 transfected K562 cells
T1 sequence (P06756 31-1048, chain 1 of 2): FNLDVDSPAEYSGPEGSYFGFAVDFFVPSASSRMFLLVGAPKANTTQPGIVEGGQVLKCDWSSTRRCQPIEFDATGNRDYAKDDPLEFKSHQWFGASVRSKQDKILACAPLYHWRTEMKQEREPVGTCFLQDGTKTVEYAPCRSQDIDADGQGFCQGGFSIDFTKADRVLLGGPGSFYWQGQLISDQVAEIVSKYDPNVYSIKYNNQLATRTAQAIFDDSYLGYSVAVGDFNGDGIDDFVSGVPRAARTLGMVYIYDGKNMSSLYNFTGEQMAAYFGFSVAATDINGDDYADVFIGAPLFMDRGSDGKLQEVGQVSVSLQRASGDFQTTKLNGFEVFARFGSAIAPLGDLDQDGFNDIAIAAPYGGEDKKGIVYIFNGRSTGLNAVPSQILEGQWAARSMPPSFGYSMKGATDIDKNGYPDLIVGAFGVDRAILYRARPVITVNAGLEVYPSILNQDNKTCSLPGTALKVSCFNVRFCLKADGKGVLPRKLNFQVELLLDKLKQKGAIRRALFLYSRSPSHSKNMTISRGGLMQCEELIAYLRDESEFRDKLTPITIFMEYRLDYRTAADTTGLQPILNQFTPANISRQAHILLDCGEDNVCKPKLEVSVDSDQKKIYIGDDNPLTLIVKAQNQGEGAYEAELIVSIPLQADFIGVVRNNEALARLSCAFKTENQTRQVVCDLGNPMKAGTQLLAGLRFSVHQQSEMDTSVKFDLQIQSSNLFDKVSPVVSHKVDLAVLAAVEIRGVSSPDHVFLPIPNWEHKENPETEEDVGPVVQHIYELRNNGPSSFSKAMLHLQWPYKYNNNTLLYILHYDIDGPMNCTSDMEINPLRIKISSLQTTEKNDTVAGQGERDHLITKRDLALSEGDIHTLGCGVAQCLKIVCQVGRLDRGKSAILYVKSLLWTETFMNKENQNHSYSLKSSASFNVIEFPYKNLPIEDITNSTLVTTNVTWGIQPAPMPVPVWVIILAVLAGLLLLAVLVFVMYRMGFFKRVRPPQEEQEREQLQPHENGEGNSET
T1 sequence (P05106 27-788, chain 2 of 2): as the sequence (P05106 27-788) above
Experiment: flow cytometry, competition with FITC-Echistatin on αvβ3-K562 cells; ++ = IC50 1-10 µM
Details: not given

Molecule	IC50 [nM]
B1	1000 to 10000
B2	1000 to 10000
B3	1000 to 10000

Biological target: T1, αvβ3 integrin
Experiment: flow cytometry, competition with biotinylated LXW7 on αvβ3-K562 cells; +++ = IC50 <1 µM
Details: not given

Molecule	IC50 [nM]
B4	< 1000
B5	< 1000
{4‑(trifluoromethyl)benzoyl}-[dC]GRGD[dD][dV][dC]-NH2 (disulfide 1-8) [LXW85]	< 1000
{3,5‑dihydroxy benzoyl}-[dC]GRGD[dD][dV][dC]-NH2 (disulfide 1-8) [LXW83]	< 1000
{2‑methylthiazole‑4‑carbonyl}-[dC]GRGD[dD][dV][dC]-NH2 (disulfide 1-8) [LXW86]	< 1000
{3‑phenyl propionyl}-[dC]GRGD[dD][dV][dC]-NH2 (disulfide 1-8) [LXW80]	< 1000
{2‑naphthoyl}-[dC]GRGD[dD][dV][dC]-NH2 (disulfide 1-8) [LXW89]	< 1000
{biphenyl‑4‑carbonyl}-[dC]GRGD[dD][dV][dC]-NH2 (disulfide 1-8) [LXW84]	< 1000

Biological target: T1, αvβ3 integrin
Experiment: flow cytometry, competition with biotinylated LXW7 on αvβ3-K562 cells; + = IC50 >10 µM
Details: not given

Molecule	IC50 [nM]
B6	> 10000
B7	> 10000
B8	> 10000
B9	> 10000
